Data on 2 molecules can be found in paper PMC8998314, “MYB2 Is Important for Tapetal PCD and Pollen Development by Directly Activating Protease Expression in Arabidopsis”.

The data set concerns the target T1, HIS-MYB2 (Arabidopsis thaliana, UniProt Q39028 1-273).
T1 sequence: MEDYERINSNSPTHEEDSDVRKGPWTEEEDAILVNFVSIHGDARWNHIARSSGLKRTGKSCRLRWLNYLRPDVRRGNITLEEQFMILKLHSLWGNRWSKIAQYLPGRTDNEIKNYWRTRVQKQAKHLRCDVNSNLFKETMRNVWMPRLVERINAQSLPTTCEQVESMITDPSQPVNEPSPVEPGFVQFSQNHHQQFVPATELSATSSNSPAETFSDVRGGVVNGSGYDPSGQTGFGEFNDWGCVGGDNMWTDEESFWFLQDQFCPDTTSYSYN
The data set can be described thus: EMSA; EMSA binding buffer (Beyotime Chemiluminescent EMSA kit, composition and pH not stated), 30 min at 25 °C. Particulars: protein: recombinant; tags: His (pET-30a); label: biotin. (In general: Mobility shift assays separate free from complexed probe on a gel.)

B1: CEP1 short probe with TAACTG (dsDNA)
DNA 1: TTAGACAACAGTTATTGTAATG
DNA 2: CATTACAATAACTGTTGTCTAA
In the case of B1, the binding result was “binds”.

B2: CEP1 short probe(s) with AAACCA (dsDNA)
DNA 1: GCTCCTGAAAACCATAATCAGA
DNA 2: TCTGATTATGGTTTTCAGGAGC
In the case of B2, the binding result is given as “binds”.
